Patent US20220064224A1 (NOVOBIND LIVESTOCK THERAPEUTICS, published 2022)
Where a chain is given by its changes, count along the chain named.

B1: NBX0426 (VHH)
VHH: QVQLQESGGGLVQPGGSLRLSCAASGIGDRPYVMAWHRQAPGKQRELVATITRDGYTNYADTVKGRFVVSRDNAQNTVYLQMNYLKPADTAVYYCRAYNAYLNLGYWGQGTQVTVST
B2: NBX0417 (VHH)
VHH: QVQLQESGGGLVQPGGSLRLSCAASGSIFSINVMAWYRQAPGKEREYVASITRGGGDYYANSVKGRFTISRDNAKNAVYLQMNSLKPEDTAVYECNAQISQTISGDYRNYWGQGTQVTVSS
B3: NBX0430 (VHH)
VHH: QVQLQQSGGGLVQAGGSLRLSCAASGLTFGSPAMAWYRQAPGKEREWVATISRGGSTYYADSVKGRFTISRDNAKNTSYLQMNSLKPEETAVYYCAAGLSSMRYDYWGQGTQVTVSS
B4: NBX0415 (VHH)
VHH: QVQLQESGGGLVQAGGSLRLSCAASGRTFSSYAMGWFRQAPGKEREYVAAINRFGGTYYADFVKGRFTISRDNAKNTVYLQMNSLKPEDTAVYYCAASRILGLTTAREDYNYWGQGTQVTVSS
B5: NBX0429 (VHH)
VHH: B4 VHH with E6Q, R99G, T104S
B6: NBX0412 (VHH)
VHH: B4 VHH with A24V, G55S, T104S
B7: NBX0431 (VHH)
VHH: B4 VHH with E6Q, A50G, T104S
B8: NBX0411 (VHH)
VHH: QVQLQESGGGLVQPGGSLRLSCAVSGLAFGRVAMAWYRQAPGKERELVARISSGGYTNYADSAKGRFTISRDNVKNLVYLQMNSLKFDDTAVYYCNSGWSGDYWGKGTLVTVSS
B9: NBX0421 (VHH)
VHH: B8 VHH with E6Q, V32Y, S53N, L77T, Q81E, D102N
B10: NBX0428 (VHH)
VHH: QVQLQESGGGLVQAGGSLRLSCAASGSTSSINHIAWYRQAPGKQREWVATITSGGGSTYYTNSVKGRFTISRDNAKNTVYLQMNNLKPEDTAVYYCKANQAAGNKDYWGQGTQVTVSS
B11: NBX0414 (VHH)
VHH: QVQLQESGGGLVQAGGSLRLSCRASGRTFSSSSMGWFRQAPGKERDFVAAISWDGASTRYADSVKGRFTISRDNAKNTVYLQMNSLKPEDTAVYYCAASTMDFIVLLTKWYPYWGQGTQVTVSS
B12: NBX0416 (VHH)
VHH: B11 VHH with R23A, S52N, D54S, A56D, N77S

These binders were tested against Canine Parvovirus Type 2 (CPV2) (Canine parvovirus type 2) (assay: cell-based or functional assay).

B1 and B2 cannot be ordered by “Invasion reduced by >50% at 5 µM NBX” value: greater than 50% for the first, no more than 50% for the second.

B3 and B4 cannot be ordered by “Invasion reduced by >50% at 5 µM NBX” value: no more than 50% for the first, no more than 50% for the second.

B5 and B6 cannot be ordered by “Invasion reduced by >50% at 5 µM NBX” value: no more than 50% for the first, no more than 50% for the second.

B7 and B8 cannot be ordered by “Invasion reduced by >50% at 5 µM NBX” value: no more than 50% for the first, greater than 50% for the second.

B9 and B10 cannot be ordered by “Invasion reduced by >50% at 5 µM NBX” value: greater than 50% for the first, greater than 50% for the second.

B11 and B12 cannot be ordered by “Invasion reduced by >50% at 5 µM NBX” value: greater than 50% for the first, no more than 50% for the second.
